Reference: US20220023399A1 (CONTRAFECT, published 2022)

Target: T1, human serum albumin (human, UniProt P02768 25-609)
T1 construct: also called HSA; rHSA
Experiment: confocal/deconvolution microscopy; S. aureus ATCC 700699 pretreated with HSA 40 mg/mL, CF-301^RHD at 0.25×MIC

T1 sequence (P02768 25-609): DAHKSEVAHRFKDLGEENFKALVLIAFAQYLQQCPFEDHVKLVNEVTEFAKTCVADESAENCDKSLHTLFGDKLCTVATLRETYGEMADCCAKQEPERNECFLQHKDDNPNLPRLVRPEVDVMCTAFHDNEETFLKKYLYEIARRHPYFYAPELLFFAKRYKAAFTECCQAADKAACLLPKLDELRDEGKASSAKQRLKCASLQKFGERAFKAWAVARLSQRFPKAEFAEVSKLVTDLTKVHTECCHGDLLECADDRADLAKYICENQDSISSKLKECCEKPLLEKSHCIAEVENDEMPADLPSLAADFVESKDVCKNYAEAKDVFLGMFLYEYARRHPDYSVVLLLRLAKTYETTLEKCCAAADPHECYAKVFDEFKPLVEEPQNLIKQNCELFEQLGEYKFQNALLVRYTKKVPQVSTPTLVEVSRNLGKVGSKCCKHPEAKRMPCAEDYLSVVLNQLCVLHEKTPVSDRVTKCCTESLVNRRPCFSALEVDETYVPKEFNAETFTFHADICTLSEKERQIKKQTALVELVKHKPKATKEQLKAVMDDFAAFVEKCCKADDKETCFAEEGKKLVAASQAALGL

B1: rhodamine-labeled PlySs2 (CF-301) (enzyme)
chain: MTTVNEALNNVRAQVGSGVSVGNGECYALASWYERMISPDATVGLGAGVGWVSGAIGDTISAKNIGSSYNWQANGWTVSTSGPFKAGQIVTLGATPGNPYGHVVIVEAVDGDRLTILEQNYGGKRYPVRNYYSAASYRQQVVHYITPPGTVAQSAPNLAGSRSYRETGTMTVTVDALNVRRAPNTSGEIVAVYKRGESFDYDTVIIDVNGYVWVSYIGGSGKRNYVATGATKDGKRFGNAWGTFK
notes: also called CF-301^RHD; CF-301^RHOD
binding result: binds
